The text below walks through data of publication PMC4569481, “Pseudomonas aeruginosa Uses Dihydrolipoamide Dehydrogenase (Lpd) to Bind to the Human Terminal Pathway Regulators Vitronectin and Clusterin to Inhibit Terminal Pathway Complement Attack” (PLoS ONE, 2015).

The labels stand for the following.
B1: Dihydrolipoamide dehydrogenase (Lpd) of P. aeruginosa, recombinant full length (Lpd^1-478) (natural protein)
chain: MSQKFDVVVIGAGPGGYVAAIRAAQLGLKTACIEKYIGKEGKVALGGTCLNVGCIPSKALLDSSYKYHEAKEAFKVHGIEAKGVTIDVPAMVARKANIVKNLTGGIATLFKANGVTSFEGHGKLLANKQVEVTGLDGKTQVLEAENVIIASGSRPVEIPPAPLTDDIIVDSTGALEFQAVPKKLGVIGAGVIGLELGSVWARLGAEVTVLEALDKFLPAADEQIAKEALKVLTKQGLNIRLGARVTASEVKKKQVTVTFTDANGEQKETFDKLIVAVGRRPVTTDLLAADSGVTLDERGFIYVDDHCKTSVPGVFAIGDVVRGAMLAHKASEEGVMVAERIAGHKAQMNYDLIPSVIYTHPEIAWVGKTEQTLKAEGVEVNVGTFPFAASGRAMAANDTTGLVKVIADAKTDRVLGVHVIGPSAAELVQQGAIGMEFGTSAEDLGMMVFSHPTLSEALHEAALAVNGHAIHIANRKKR
notes: On the gel two bands, 57 and 50 kDa
B2: Lpd deletion mutant Lpd^1-287 (domain or fragment, P. aeruginosa strain PAO1, UniProt Q9I3D1 1-287, looked up)
chain: MSQKFDVVVIGAGPGGYVAAIRAAQLGLKTACIEKYIGKEGKVALGGTCLNVGCIPSKALLDSSYKYHEAKEAFKVHGIEAKGVTIDVPAMVARKANIVKNLTGGIATLFKANGVTSFEGHGKLLANKQVEVTGLDGKTQVLEAENVIIASGSRPVEIPPAPLTDDIIVDSTGALEFQAVPKKLGVIGAGVIGLELGSVWARLGAEVTVLEALDKFLPAADEQIAKEALKVLTKQGLNIRLGARVTASEVKKKQVTVTFTDANGEQKETFDKLIVAVGRRPVTTDLL
notes: Dihydrolipoamide dehydrogenase (Lpd), P. aeruginosa strain PAO1, residues 1-287; also called Lpd^1-287: 37 kDa
B3: vitronectin, monomeric, purified from human plasma (natural protein)
chain: DQESCKGRCTEGFNVDKKCQCDELCSYYQSCCTDYTAECKPQVTRGDVFTMPEDEYTVYDDGEEKNNATVHEQVGGPSLTSDLQAQSKGNPEQTPVLKPEEEAPAPEVGASKPEGIDSRPETLHPGRPQPPAEEELCSGKPFDAFTDLKNGSLFAFRGQYCYELDEKAVRPGYPKLIRDVWGIEGPIDAAFTRINCQGKTYLFKGSQYWRFEDGVLDPDYPRNISDGFDGIPDNVDAALALPAHSYSGRERVYFFKGKQYWEYQFQHQPSQEECEGSSLSAVFEHFAMMQRDSWEDIFELLFWGRTSAGTRQPQFISRDWHGVPGQVDAAMAGRIYISGMAPRPSLAKKQRFRHRNRKGYRSQRGHSRGRNQNSRRPSRATWLSLFSSEESNLGANNYDDYRMDWLVPATCEPIQSVFFFSGDKYYRVNLRTRRVDTVDPPYPRSIAQYWLGCPAPGHL
notes: vitronectin, human, purified from plasma; In the MST experiment labelled with NT-647 RED-NHS; Plasma vitronectin circulates as variants of 75 and 65 kDa; also called Vn; full-length vitronectin; source: bought: Corning, purified from human plasma
B4: clusterin, purified from human plasma (natural protein)
chain 1: DQTVSDNELQEMSNQGSKYVNKEIQNAVNGVKQIKTLIEKTNEERKTLLSNLEEAKKKKEDALNETRESETKLKELPGVCNETMMALWEECKPCLKQTCMKFYARVCRSGSGLVGRQLEEFLNQSSPFYFWMNGDRIDSLLENDRQQTHMLDVMQDHFSRASSIIDELFQDRFFTREPQDTYHYLPFSLPHRRPHFFFPKSRIVR
chain 2: SLMPFSPYEPLNFHAMFQPFLEMIHEAQQAMDIHFHSPAFQHPPTEFIREGDDDRTVCREIRHNSTGCLRMKDQCDKCREILSVDCSTNNPSQAKLRRELDESLQVAERLTRKYNELLKSYQWKMLNTSSLLEQLNEQFNWVSRLANLTQGEDQYYLRVTTVASHTSDSDVPSGVTEVVVKLFDSDPITVTVPVEVSRKNPKFMETVAEKALQEYRKKHREE
notes: Disulfide-linked heterodimer of one alpha and one beta chain of 40 kDa each; In the MST experiment labelled with NT-647 RED-NHS; source: bought: BioVision, purified from human plasma; copies: 1 + 1
B5: Lpd deletion mutant Lpd^1-382 (domain or fragment, P. aeruginosa strain PAO1, UniProt Q9I3D1 1-382, looked up)
chain: MSQKFDVVVIGAGPGGYVAAIRAAQLGLKTACIEKYIGKEGKVALGGTCLNVGCIPSKALLDSSYKYHEAKEAFKVHGIEAKGVTIDVPAMVARKANIVKNLTGGIATLFKANGVTSFEGHGKLLANKQVEVTGLDGKTQVLEAENVIIASGSRPVEIPPAPLTDDIIVDSTGALEFQAVPKKLGVIGAGVIGLELGSVWARLGAEVTVLEALDKFLPAADEQIAKEALKVLTKQGLNIRLGARVTASEVKKKQVTVTFTDANGEQKETFDKLIVAVGRRPVTTDLLAADSGVTLDERGFIYVDDHCKTSVPGVFAIGDVVRGAMLAHKASEEGVMVAERIAGHKAQMNYDLIPSVIYTHPEIAWVGKTEQTLKAEGVEVNV
notes: Dihydrolipoamide dehydrogenase (Lpd), P. aeruginosa strain PAO1, residues 1-382; also called Lpd^1-382: 53 kDa

Settings in all cases: both partners purified
For one experiment, the target named is T1, Factor H (human, UniProt P08603 19-1231).
T1 construct: complement Factor H, human; source: bought: Complement Technology
Put plainly: ELISA; two human ligands added together to immobilized Lpd, one at a constant concentration (vitronectin 5 μg/ml, clusterin 2.5 μg/ml, Factor H 5 μg/ml or plasminogen 5 μg/ml), the other at increasing concentrations; each detected with its own antibody.

Experiment [1] addresses B3. The experiment in a line: ELISA; equimolar amounts (13.3 nM) of full length Lpd and Lpd deletion mutants immobilized on microtiter plates; vitronectin or clusterin added; bound ligand quantified with antibodies.
Experiment [2] addresses B1. The experiment in a line: MST; fluid phase; NT-647-labeled vitronectin (50 nM) or clusterin (25 nM) mixed with Lpd in 1:2 dilutions (0.001 to 50 μM); 50 mM Tris-HCl pH 7.6, 150 mM NaCl, 10 mM MgCl2, 0.05% Tween-20; RT; 50% LED power, 80% MST power.
In experiment [3] the target is B1. The experiment in a line: ELISA; two human ligands added together to immobilized Lpd, one at a constant concentration (vitronectin 5 μg/ml, clusterin 2.5 μg/ml, Factor H 5 μg/ml or plasminogen 5 μg/ml), the other at increasing concentrations; each detected with its own antibody.
The target in experiment [4] is Lpd deletion mutant Lpd^141-478 (P. aeruginosa strain PAO1, UniProt Q9I3D1 141-478). The experiment in a line: ELISA; equimolar amounts (13.3 nM) of full length Lpd and Lpd deletion mutants immobilized on microtiter plates; vitronectin or clusterin added; bound ligand quantified with antibodies.
Experiment [5] addresses T2, Lpd deletion mutant Lpd^1-160 (P. aeruginosa strain PAO1, UniProt Q9I3D1 1-160).
T2 construct: Dihydrolipoamide dehydrogenase (Lpd), P. aeruginosa strain PAO1, residues 1-160; also called Lpd^1-160: 20 kDa; N-terminal Lpd^1-160
Described as above.

Experiment [6] has as its target Lpd deletion mutant Lpd^264-478 (P. aeruginosa strain PAO1, UniProt Q9I3D1 264-478). The experiment is described as above.
Experiment [7] addresses B4. The description is as above.

T1 sequence (P08603 19-1231): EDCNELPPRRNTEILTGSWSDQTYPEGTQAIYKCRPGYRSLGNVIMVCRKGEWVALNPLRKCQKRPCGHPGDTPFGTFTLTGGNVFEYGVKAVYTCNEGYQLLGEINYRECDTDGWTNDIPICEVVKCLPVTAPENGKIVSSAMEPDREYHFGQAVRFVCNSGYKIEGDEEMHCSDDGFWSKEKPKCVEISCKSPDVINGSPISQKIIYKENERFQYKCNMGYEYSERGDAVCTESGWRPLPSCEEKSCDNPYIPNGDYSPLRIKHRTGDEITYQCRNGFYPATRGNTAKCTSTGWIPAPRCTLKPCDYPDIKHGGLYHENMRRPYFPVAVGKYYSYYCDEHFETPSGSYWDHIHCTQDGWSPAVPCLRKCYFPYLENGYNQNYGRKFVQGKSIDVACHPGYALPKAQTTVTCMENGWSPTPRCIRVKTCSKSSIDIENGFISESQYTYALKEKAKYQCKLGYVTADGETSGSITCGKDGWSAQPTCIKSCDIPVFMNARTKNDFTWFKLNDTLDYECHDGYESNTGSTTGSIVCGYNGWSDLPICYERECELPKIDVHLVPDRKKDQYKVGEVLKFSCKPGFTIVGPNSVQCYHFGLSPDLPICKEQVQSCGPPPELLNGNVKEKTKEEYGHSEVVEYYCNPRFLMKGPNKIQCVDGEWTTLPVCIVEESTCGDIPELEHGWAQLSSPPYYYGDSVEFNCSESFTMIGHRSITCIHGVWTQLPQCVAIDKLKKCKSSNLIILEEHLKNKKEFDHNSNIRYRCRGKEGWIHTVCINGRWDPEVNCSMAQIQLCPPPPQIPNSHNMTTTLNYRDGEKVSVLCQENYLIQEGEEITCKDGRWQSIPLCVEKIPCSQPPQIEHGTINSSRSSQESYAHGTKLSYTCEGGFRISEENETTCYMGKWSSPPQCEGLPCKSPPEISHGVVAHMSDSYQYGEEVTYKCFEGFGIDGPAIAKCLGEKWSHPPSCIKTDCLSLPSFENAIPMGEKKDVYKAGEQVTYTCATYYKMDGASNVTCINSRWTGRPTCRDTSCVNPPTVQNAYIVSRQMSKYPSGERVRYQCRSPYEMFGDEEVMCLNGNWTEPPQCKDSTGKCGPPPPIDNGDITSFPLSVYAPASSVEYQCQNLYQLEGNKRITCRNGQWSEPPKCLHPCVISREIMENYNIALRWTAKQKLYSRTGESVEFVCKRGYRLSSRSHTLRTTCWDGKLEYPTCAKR

Turning to B1, the binding result with Factor H is “binds”.
Consider B2, for which, in experiment [1], the binding result was “binds”.
B3: in experiment [2], the Kd was found to be 600 ± 50 nM. Besides, in experiment [3], the “percent reduction of Factor H binding to Lpd by vitronectin at four-fold molar excess” value is 37%. Moreover, the “percent reduction of binding (ELISA signal)” value came to 47% in experiment [4], 51% in experiment [5] and 47% in experiment [6].
Consider B4, for which, in experiment [2], the Kd turned out to be 654 ± 54 nM.
Turning to B5, the binding result in experiment [1] and in experiment [7] was “binds” each time.
